Experimental data: publication doi:10.1101/2025.05.02.651858

Target: ϕC31 integrase^S12A-RDF fusion protein (Streptomyces phage ϕC31) (UniProt Q9T221)
Assay: SEC-MALS

stoichiometry N: 4
Substance: ϕC31 integrase^S12A-RDF fusion protein (from UniProt Q9T221 1-605)
